Here are results for one molecule from patent US20220348681A1, “FUSED PROTEIN OF AN ANTIBODY WHICH RECOGNIZES CANCER-CELLS AND A STREPTAVIDIN MUTANT” (THE UNIVERSITY OF TOKYO, priority 2021, published 2022).

This assay in a line: Interaction analysis between CEA-V2122-del5 and modified biotin using Biacore T200 (single-cycle kinetics, bivalent analysis mode). It counts as binding. The note with it: analyte Psyche J-iodine. The method, then:
The interaction between CEA-V2122-del5 and a modified biotin was analyzed using Biacore T200. The Psyche J-iodine described in Production Example 1 was used herein as a modified biotin.
The analysis method was specifically as follows. That is, an amine-coupling kit was used, a target value was set to be 3000 RU, and the purified CEA-V2122-del5 was immobilized on Sensor Chip CM5. With regard to the concentrations of the analytes, 2.5E−09 M was two-fold diluted, and 5 types of two-fold serial dilutions including 2.5E-09 M were prepared and used in the measurement. Regarding interaction analysis, data were obtained by single-cycle kinetics analysis. Using Biacore T200 Evaluation Software, version 2.0, the obtained data were subjected to curve fitting in a bivalent analysis mode, and the following values were obtained: ka1=6.3E+03, and kd1=8.0E−06.

Setting [1] is: CEA-V2122-del5 immobilized on Sensor Chip CM5, 5 two-fold serial dilutions from 2.5E-09 M, curve fitting in bivalent analysis mode.

B1: CEA-V2122-del5: fusion of scFv-type anti-CEACAM5 antibody and mutant streptavidin V2122 lacking 11 C-terminal amino acids including 6xHis tag (SEQ ID NO: 18) (protein)
chain: MKYLLPTAAAGLLLLAAQPAMAQVKLEQSGAEVVKPGASVKLSCKASGFNIKDSYMHWLRQGPGQRLEWIGWIDPENGDTEYAPKFQGKATFTTDTSANTAYLGLSSLRPEDTAVYYCNEGTPTGPYYFDYWGQGTLVTVSSGGGGSGGGGSGGGGSENVLTQSPSSMSVSVGDRVNIACSASSSVPYMHWLQQKPGKSPKLLIYLTSNLASGVPSRFSGSGSGTDYSLTISSVQPEDAATYYCQQRSSYPLTFGGGTKLEIKGGGGSGGGGAEAGITGTWSDQLGDTFIVTAGADGALTGTYENAVGGAESRYVLTGRYDSAPATDGSGTALGWTVAWKNNSKNAHSATTWSGQYVGGADAKINTQWLLTSGTTNANAWKSTLVGHDTFTKVK
Under setting [1], B1 gave a ka1 of 6.3E+03 and a kd1 of 8.0E−06. Besides, the “KD=kd1/ka1” value (evaluation value from the bivalent analysis) stood at 1.3E−09.
